{"source": "paper PMC2673439", "key": {"tvMyb1(35-141) T67A": {"target": "T1, tvMyb1(35-141) T67A (Trichomonas vaginalis, UniProt Q58HP2 35-141, T67A)", "T1 sequence": "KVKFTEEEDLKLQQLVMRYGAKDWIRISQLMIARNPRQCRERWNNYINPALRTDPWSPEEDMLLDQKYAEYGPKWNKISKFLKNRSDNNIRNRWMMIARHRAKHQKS", "assay": "SPR"}, "tvMyb1(35-141)": {"target": "T2, tvMyb1(35-141) (Trichomonas vaginalis, UniProt Q58HP2 35-141)", "T2 sequence": "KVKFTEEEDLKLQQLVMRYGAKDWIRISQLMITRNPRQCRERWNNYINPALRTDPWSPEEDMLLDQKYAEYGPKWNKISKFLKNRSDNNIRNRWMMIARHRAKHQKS", "assay": "SPR"}}, "data": [{"binder": "MRE-1/MRE-2r 16-bp duplex, 5'-biotin (dsDNA) DNA 1: AAGATAACGATATTTA DNA 2: TAAATATCGTTATCTT", "values": [{"measurement": "binding result", "setting": "tvMyb1(35-141) T67A", "value": "binds"}, {"measurement": "Kd", "setting": "tvMyb1(35-141)", "value": 1.24, "unit": "nM"}]}]}
